Tested on: Escherichia coli TOP10
Assay: shrunken log2 fold change of peptide-encoding DNA abundance (4.5 h post-induction vs induction); higher = less antimicrobial activity (less host growth inhibition)
Details: time post-induction: 4.5 h; library: site-saturation at positions 5, 18, 19, 20
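Further: peptides expressed intracellularly from a pBAD plasmid library in pooled LB shake-flask culture, induced with 0.3% L-arabinose, DNA abundance read by NGS, three biological replicates, DESeq2 with apeglm shrinkage.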

Sequence	shrunken log2 fold change
RRIRARPPRLPRPRPRPNIMPRP	-0.266
RRIRCRPPRLPRPRPRPQNVPRP	-0.749
RRIRQRPPRLPRPRPRPQMRPRP	-0.0736
RRIRARPPRLPRPRPRPQHCPRP	0.138
RRIRERPPRLPRPRPRPSYQPRP	-0.469
RRIRLRPPRLPRPRPRPVSAPRP	0.0663
RRIRQRPPRLPRPRPRPNPFPRP	-0.26
RRIRRRPPRLPRPRPRPYCWPRP	-0.474
RRIRPRPPRLPRPRPRPNQTPRP	0.106
RRIRPRPPRLPRPRPRPWTRPRP	0.0201
RRIRNRPPRLPRPRPRPGVGPRP	0.402
RRIRKRPPRLPRPRPRPPHCPRP	1.19
RRIRKRPPRLPRPRPRPSYFPRP	-0.029
RRIRTRPPRLPRPRPRPNSAPRP	-0.181
RRIRDRPPRLPRPRPRPHSGPRP	-0.0339
RRIRYRPPRLPRPRPRPTRLPRP	0.262
RRIRERPPRLPRPRPRPWPVPRP	-0.643
RRIRWRPPRLPRPRPRPLWLPRP	0.202
RRIRCRPPRLPRPRPRPTNPPRP	-0.429
RRIRCRPPRLPRPRPRPRCNPRP	0.00442
RRIRIRPPRLPRPRPRPPQIPRP	-0.157

Sequence	shrunken log2 fold change
RRIRVRPPRLPRPRPRPCISPRP	0.00333
RRIRKRPPRLPRPRPRPARNPRP	0.00491
RRIRTRPPRLPRPRPRPQWLPRP	-0.455
RRIRMRPPRLPRPRPRPCRFPRP	-0.0352
RRIRMRPPRLPRPRPRPKYNPRP	-0.446
RRIRLRPPRLPRPRPRPKREPRP	0.0937
RRIRTRPPRLPRPRPRPRQPPRP	0.135
RRIRMRPPRLPRPRPRPVDIPRP	-0.0631
RRIRCRPPRLPRPRPRPLWIPRP	-0.166
RRIRCRPPRLPRPRPRPGIIPRP	-0.00738
RRIRSRPPRLPRPRPRPKHWPRP	0.311
RRIRFRPPRLPRPRPRPPMRPRP	1.05
RRIRVRPPRLPRPRPRPNQSPRP	0.00904
RRIRNRPPRLPRPRPRPGSSPRP	0.0992
RRIRWRPPRLPRPRPRPYENPRP	-0.19
RRIRSRPPRLPRPRPRPKWQPRP	0.255
RRIRYRPPRLPRPRPRPCNEPRP	0.0341
RRIRHRPPRLPRPRPRPVQWPRP	0.0118
RRIRWRPPRLPRPRPRPYRYPRP	0.0299
RRIRLRPPRLPRPRPRPAGRPRP	0.0831
RRIRCRPPRLPRPRPRPQCSPRP	-0.0788

Sequence	shrunken log2 fold change
RRIRHRPPRLPRPRPRPHSFPRP	-0.0282
RRIRPRPPRLPRPRPRPGRQPRP	0.742
RRIRERPPRLPRPRPRPQPKPRP	-0.077
RRIRNRPPRLPRPRPRPAQIPRP	0.603
RRIRIRPPRLPRPRPRPNYLPRP	-0.171
RRIRWRPPRLPRPRPRPSWIPRP	0.0261
RRIRRRPPRLPRPRPRPDICPRP	0.0657
RRIRSRPPRLPRPRPRPRPRPRP	0.815
RRIRCRPPRLPRPRPRPSHDPRP	-0.235
RRIRWRPPRLPRPRPRPDLIPRP	0.0332
RRIRERPPRLPRPRPRPVWDPRP	0.00068
RRIRMRPPRLPRPRPRPATPPRP	1.24
RRIRFRPPRLPRPRPRPVTLPRP	0.347
RRIRNRPPRLPRPRPRPDPSPRP	0.152
RRIRFRPPRLPRPRPRPGCSPRP	-0.0796
RRIRCRPPRLPRPRPRPLNSPRP	-0.605
RRIRLRPPRLPRPRPRPADGPRP	-0.082
RRIRMRPPRLPRPRPRPTTQPRP	0.081
RRIRTRPPRLPRPRPRPPFTPRP	0.0073
RRIRHRPPRLPRPRPRPEWMPRP	0.188
